Source: patent US11932683B2, “Cellular factors involved in the cytotoxicity of Staphylococcus aureus leukocidins: novel therapeutic targets” (NEW YORK UNIVERSITY, priority 2013, dated 2024)

How the values were obtained:
human PMNs [1] = experiment: Viability of PMNs challenged with a lethal dose of LukED in the presence of chemokines; assay type: cell-based; conditions: LukED 75 nM
PMNs = experiment: Ex vivo infection of PMNs with toxin-producing S. aureus strains; assay type: cell-based, human; conditions: multiplicity of infection of 10
Procedure: Ex vivo infection experiments. S. aureus strains containing either the pOS1-plukA-lukAs.s.-6×His vector construct containing either no toxin (empty), lukED or lukE^DR4D were subcultured for 4.5 hours, followed by normalization to 1×10^9 CFU per ml in RPMI+10% FBS. Cells were diluted 1:10 and 20 μl were added to 80 μl of media containing 2×10^5 PMNs seeded into 96-well plates. Infections were carried out for 3.5 hours at 37° C. with shaking at 180 RPM. 2 μg ml-1 of lysostaphin was added for 20 minutes at 37° C. with shaking at 180 RPM to kill all bacteria. Cells were centrifuged for 5 minutes at 1,500 RPM and 4° C., followed by fixing in FACS fixing buffer (PBS+2% FBS+2% paraformaldehyde+0.05% sodium azide). To analyze toxin mediated killing by flow cytometry, cellular depletion from gated live cells was evaluated. Percent cell death was calculated by comparing cells remaining in the live gate to that of Newman ΔΔΔΔ strain containing the empty pOS1-plukA modified empty vector (no toxin), which was set to 0% dead.

human RBCs = experiment: LukED-mediated lysis of human red blood cells; assay type: cell-based; conditions: RBCs from nine donors, DARC+ and DARC−
monocytes within PBMCs = experiment: LukED treatment of human PBMCs, CD14/CD3 flow cytometry; assay type: cell-based; conditions: PBMCs from a Δ32Ccr5 donor; LukED 75 nM
Procedure: (§1) Isolation of PBMCs. Blood was obtained as buffy coats with the consent of de-identified donors from the New York Blood Center. PBMCs were isolated from blood using a Ficoll-Paque PLUS gradient (GE Amersham) and gated on CCR5^+ cells, followed by anti-CD3 and CD14 cell surface staining for lymphocyte and monocyte populations. Cells were then incubated with LukED (75 nM) in the presence or absence of maraviroc (MVC, 100 ng ml-1).
CCR5 inhibitor and ligands. Maraviroc was obtained through the AIDS Research and Reference Reagent Program, Division of AIDS (NIAID, NIH) and used at a final concentration of 100 ng ml-1.
(§2) FACS analysis. Cell staining was performed as described previously (Alonzo et al., “CCR5 is a Receptor for Staphylococcus aureus Leukotoxin ED,” Nature 493:51-55 (2013), which is hereby incorporated by reference in its entirety). FACS data were obtained using FACSDiva software on a LSRII flow cytometer (BD Biosciences). Data was analyzed using FlowJo software (Treestar).
(§3) Leukotoxin treatments. HEK293T cells, THP-1, primary human PBMCs and primary murine peritoneal exudate cells were treated with LukE, LukD or LukED as previously described (Alonzo et al., “CCR5 is a Receptor for Staphylococcus aureus Leukotoxin ED,” Nature 493:51-55 (2013), which is hereby incorporated by reference in its entirety). In all experiments 1-2×10^5 cells were seeded into 96-well plates. […]

DARC = target: T1, DARC (Homo sapiens, UniProt Q16570); experiment: Toxin susceptibility of HEK293T cells transfected with DARC; assay type: cell-based; conditions: ethidium bromide permeability (1 hr; HlgAB/HlgCB 20 μg/ml)
T1 construct: expressed in transfected cells; host or cells: HEK293T
T1 sequence (Q16570 1-336): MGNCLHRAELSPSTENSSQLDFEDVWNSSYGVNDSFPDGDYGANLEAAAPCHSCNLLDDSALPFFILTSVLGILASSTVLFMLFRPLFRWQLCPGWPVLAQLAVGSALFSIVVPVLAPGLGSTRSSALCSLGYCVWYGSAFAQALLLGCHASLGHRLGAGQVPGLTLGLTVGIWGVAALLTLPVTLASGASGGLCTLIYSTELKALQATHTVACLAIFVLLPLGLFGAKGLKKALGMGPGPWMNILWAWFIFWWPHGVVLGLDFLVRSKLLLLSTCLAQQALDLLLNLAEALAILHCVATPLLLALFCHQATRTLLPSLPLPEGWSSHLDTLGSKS

mice = experiment: Survival of mice upon bloodstream (intravenous) administration of purified toxin; assay type: in vivo, mouse; conditions: intravenous injection, 10 μg of each subunit, n=5
human PMNs [2] = experiment: Viability of primary human neutrophils (PMNs) treated with leukotoxins; assay type: cell-based
[3] = test system: PBMC subsets (NK cells, CD8^+ T cells, monocytes); experiment: Susceptibility of PBMC subsets to toxins, flow cytometry; assay type: cell-based, human
Procedure: as §1, §2, §3

CXCR1 = target: T2, CXCR1 (Homo sapiens, UniProt P25024); experiment: Toxin susceptibility of HEK293T cells transfected with chemokine receptor CXCR1; assay type: cell-based; design: expressed in transfected cells; host or cells: HEK293T; conditions: viability (600 nM) or ethidium bromide permeability (1 hr; HlgAB/HlgCB 20 μg/ml)
T2 sequence (P25024 1-350): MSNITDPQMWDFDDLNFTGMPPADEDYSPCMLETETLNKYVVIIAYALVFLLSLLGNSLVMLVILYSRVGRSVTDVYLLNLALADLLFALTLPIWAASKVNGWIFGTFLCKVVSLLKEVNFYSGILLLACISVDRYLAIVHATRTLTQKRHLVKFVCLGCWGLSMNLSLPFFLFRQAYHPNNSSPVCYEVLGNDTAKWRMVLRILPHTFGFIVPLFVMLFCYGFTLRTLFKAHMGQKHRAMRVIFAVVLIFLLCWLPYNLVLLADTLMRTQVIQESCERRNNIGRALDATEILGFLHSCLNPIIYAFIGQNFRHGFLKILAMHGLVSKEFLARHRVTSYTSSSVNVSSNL

CXCR2 = target: T3, CXCR2 (Homo sapiens, UniProt P25025); experiment: Toxin susceptibility of HEK293T cells transfected with chemokine receptor CXCR2; assay type: cell-based; design: expressed in transfected cells; host or cells: HEK293T; conditions: viability (600 nM) or ethidium bromide permeability (1 hr; HlgAB/HlgCB 20 μg/ml)
T3 sequence (P25025 1-360): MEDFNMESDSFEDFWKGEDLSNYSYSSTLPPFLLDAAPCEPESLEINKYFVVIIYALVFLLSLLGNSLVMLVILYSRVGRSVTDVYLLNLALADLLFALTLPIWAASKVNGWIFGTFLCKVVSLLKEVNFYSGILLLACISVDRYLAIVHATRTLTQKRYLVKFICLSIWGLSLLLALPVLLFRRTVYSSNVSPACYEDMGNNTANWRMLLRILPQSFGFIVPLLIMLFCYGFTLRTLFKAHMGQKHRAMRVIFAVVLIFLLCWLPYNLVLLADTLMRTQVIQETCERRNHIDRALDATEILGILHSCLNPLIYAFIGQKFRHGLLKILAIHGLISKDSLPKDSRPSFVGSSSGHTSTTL
Procedure: (§4) Cell culture conditions and viral transductions. Primary human cells and THP-1 were cultured at 37° C. with 5% CO2 in RPMI supplemented with 10% fetal bovine serum (FBS; Atlanta Biologicals) and penicillin (100 U ml-1) and streptomycin (0.1 mg ml-1) (Mediatech) unless stated otherwise. Overexpression and lentiviral-based knockdown of Cxcr2 or non-target shRNA were performed as previously described (Wan et al., “Cytokine Signals Through PI-3 Kinase Pathway Modulate Th17 Cytokine Production by CCR6+ Human Memory T Cells,” J. Exp. Med. 208:1875-1887 (2011), which is hereby incorporated by reference in its entirety) and maintained in 1.3 μg ml-1 puromycin. HEK293T cells were cultured at 37° C. with 5% CO2 in DMEM (Cellgro) and supplemented as described above.
as §3

THP-1 cells = experiment: Viability of THP-1 cells transduced with non-target or Cxcr2 shRNA treated with LukED; assay type: cell-based, human; conditions: Cxcr2 shRNA versus non-target shRNA
Procedure: as §4, §3

CCR5 = target: T4, CCR5 (Homo sapiens, UniProt P51681); experiment: Toxin susceptibility of HEK293T cells transfected with CCR5; assay type: cell-based; conditions: ethidium bromide permeability (1 hr; HlgAB 20 μg/ml)
T4 construct: expressed in transfected cells; host or cells: HEK293T

[4] = test system: murine peritoneal exudate cells (PMNs, CCR5^+ macrophages); experiment: Killing of murine peritoneal exudate cells (PEC) by toxins in vitro; assay type: cell-based, mouse; conditions: 300 nM
Procedure: Murine in vitro and in vivo experiments. To evaluate LukED-mediated killing of murine cells in vitro, C57BL/6 WT mice (Taconic) were injected intraperitoneally with 1×10^7 CFU of heatkilled S. aureus Newman ΔlukED. Twenty-four hours post injection, another dose of 1×10^7 CFU of heat-killed S. aureus Newman ΔlukED was injected as before. After an additional twenty-four hours, mice were sacrificed and immune cells were collected by peritoneal cavity lavage using 8 ml of PBS. Red blood cells were lysed using 2 ml ACK lysis buffer (Gibco) followed by resuspension of remaining peritoneal exudate cells in RPMI+10% FBS. Cells were incubated with PBS, LukED or LukE^DR4D (300 nM) and incubated for 30 minutes on ice. After incubation, the cells were washed three times with PBS then stained with the fixable viability dye eFluor-450, followed by cell surface staining with CD11b, B220, F480, CD3, Ly6G, CCR5 and CXCR2 antibodies. Cell viability of specific immune cell populations was subsequently analyzed on an LSRII flow cytometer (BD). FACS plots are representative of results obtained from cells isolated from at least 3 independent animals.

T4 sequence (P51681 whole entry): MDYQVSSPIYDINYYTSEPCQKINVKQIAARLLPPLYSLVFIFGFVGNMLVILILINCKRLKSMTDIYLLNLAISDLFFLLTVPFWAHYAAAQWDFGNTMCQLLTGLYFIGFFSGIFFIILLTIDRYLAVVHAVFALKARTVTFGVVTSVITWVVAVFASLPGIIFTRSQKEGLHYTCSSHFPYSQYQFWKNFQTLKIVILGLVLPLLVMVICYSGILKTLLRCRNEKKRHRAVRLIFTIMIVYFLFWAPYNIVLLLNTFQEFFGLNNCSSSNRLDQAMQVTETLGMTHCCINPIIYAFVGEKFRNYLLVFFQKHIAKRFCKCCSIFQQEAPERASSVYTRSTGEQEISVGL

CXCL8: chemokine ligand of CXCR1/CXCR2, obtained from BioLegend
prevention of LukED-mediated death of PMNs (human PMNs [1]): prevented LukED-mediated death of PMNs | inhibition of cytotoxic activity of the LukED-producing S. aureus strain on PMNs (PMNs): inhibited by CXCL8

B1: LukED: S. aureus bicomponent pore-forming leukotoxin leukocidin E/D, LukE plus LukD subunits (protein)
chain 1: NTNIENIGDGAEVIKRTEDVSSKKWGVTQNVQFDFVKDKKYNKDALIVKMQGFINSRTSFSDVKGSGYELTKRMIWPFQYNIGLTTKDPNVSLINYLPKNKIETTDVGQTLGYNIGGNFQSAPSIGGNGSFNYSKTISYTQKSYVSEVDKQNSKSVKWGVKANEFVTPDGKKSAHDRYLFVQSPNGPTGSAREYFAPDNQLPPLVQSGFNPSFITTLSHEKGSSDTSEFEISYGRNLDITYATLFPRTGIYAERKHNAFVNRNFVVRYEVNWKTHEIKVKGHN
chain 2: AQHITPVSEKKVDDKITLYKTTATSDNDKLNISQILTFNFIKDKSYDKDTLVLKAAGNINSGYKKPNPKDYNYSQFYWGGKYNVSVSSESNDAVNVVDYAPKNQNEEFQVQQTLGYSYGGDINISNGLSGGLNGSKSFSETINYKQESYRTTIDRKTNHKSIGWGVEAHKIMNNGWGPYGRDSYDPTYGNELFLGGRQSSSNAGQNFLPTHQMPLLARGNFNPEFISVLSHKQNDTKKSKIKVTYQREMDRYTNQWNRLHWVGNNYKNQNTVTFTSTYEVDWQNHTVKLIGTDSKETNPGV
modifications: left off: small tags and cut ends
notes: S. aureus bicomponent pore-forming leukotoxin leukocidin E/D, LukE plus LukD subunits
hemolysis of human RBCs (human RBCs): some donors were susceptible to LukED hemolysis while others were not | LukED targeting of monocytes (monocytes within PBMCs): targeted in a LukED-mediated, CCR5-independent manner | susceptibility of DARC-transfected HEK293T cells to toxin (DARC): sufficient to render HEK293T cells susceptible | lethality in mice (mice): rapid death | cytotoxic activity against hPMNs (human PMNs [2]; LukE or alanine mutant mixed equimolar with LukD, n=8 donors): targeted and killed the hPMNs | susceptibility of PMNs to toxin (viability) (human PMNs [2]; PMNs from Ccr5+/+ and Δ32Ccr5 donors, 75 nM): equally susceptible to LukED | cytotoxicity to NK cells and CD8+ T cells in PBMCs [3]: cytotoxic to the majority of NK cells and a subset of CD8^+ T cells | susceptibility of CXCR1-transfected HEK293T cells to toxin (CXCR1): sufficient to render HEK293T cells susceptible | susceptibility of CXCR2-transfected HEK293T cells to toxin (CXCR2): sufficient to render HEK293T cells susceptible | LukED killing of THP-1 cells after CXCR2 knockdown (THP-1 cells): rendered cells resistant to LukED killing | susceptibility of CCR5-transfected HEK293T cells to toxin (CCR5): targets CCR5, CXCR1, CXCR2, and DARC to kill host cells | susceptibility of murine CCR5+ macrophages [4]: equally susceptible to both LukED and LukE^DR4D | murine PMNs killed ([4]; 30 minutes on ice): ~79%
